From the supplement of paper PMC9233669
This sample holds only a part of the variants without activity.

Tests used:
[1] = test system: biotinyl-Ile-oxazolone; test: self-aminoacylation, catalytic enhancement (BIO) (fold over background); higher = more active; k-Seq, kA / k0A0; sequences stand for … in GGGAAUGGAUCCACAUCUACGAAUUC…UUCACUGCAGACUUGACGAAGCUG
Summary of the method: (§1)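 Working in 50 μL HEPES/NaCl/KCl/MgCl2/CaCl2 buffer with 5% acetonitrile at pH 6.9–7.0, mutagenized RNA pools (0.43 μM; 21-nt variable region) were reacted with 2–1250 μM of each biotinyl-aminoacyl-oxazolone for 90 minutes at room temperature. Streptavidin capture followed, with quantification by triplicate qPCR and Illumina sequencing. Catalytic enhancement is reported as median kA over the uncatalyzed rate, the low-activity peak of a bimodal Gaussian fit to the data.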

[2] = test system: biotinyl-Trp-oxazolone; test: self-aminoacylation, catalytic enhancement (BWO) (fold over background); higher = more active; k-Seq, kA / k0A0; sequences stand for … in GGGAAUGGAUCCACAUCUACGAAUUC…UUCACUGCAGACUUGACGAAGCUG
Summary of the method: as §1

[3] = test system: biotinyl-Met-oxazolone; test: self-aminoacylation, catalytic enhancement (BMO) (fold over background); higher = more active; k-Seq, kA / k0A0; sequences stand for … in GGGAAUGGAUCCACAUCUACGAAUUC…UUCACUGCAGACUUGACGAAGCUG
Summary of the method: as §1

[4] = test system: biotinyl-Phe-oxazolone; test: self-aminoacylation, catalytic enhancement (BFO) (fold over background); higher = more active; k-Seq, kA / k0A0; sequences stand for … in GGGAAUGGAUCCACAUCUACGAAUUC…UUCACUGCAGACUUGACGAAGCUG
Summary of the method: as §1

[5] = test system: biotinyl-Leu-oxazolone; test: self-aminoacylation, catalytic enhancement (BLO) (fold over background); higher = more active; k-Seq, kA / k0A0; sequences stand for … in GGGAAUGGAUCCACAUCUACGAAUUC…UUCACUGCAGACUUGACGAAGCUG
Summary of the method: as §1

[6] = test system: biotinyl-Val-oxazolone; test: self-aminoacylation, catalytic enhancement (BVO) (fold over background); higher = more active; k-Seq, kA / k0A0; sequences stand for … in GGGAAUGGAUCCACAUCUACGAAUUC…UUCACUGCAGACUUGACGAAGCUG
Summary of the method: as §1

| Sequence | self-aminoacylation [1] | self-aminoacylation [2] | self-aminoacylation [3] | self-aminoacylation [4] | self-aminoacylation [5] | self-aminoacylation [6] |
| --- | --- | --- | --- | --- | --- | --- |
| AGUCACCUAGGUCACCGGGUG [Fam2.2 aminoacylation ribozyme variant] | 4.07 | 6.49 | 4.49 | 31.7 | 4.38 | 4.47 |
| AAGUUUGCUAAAAGUCGCGAG [Fam3.1 aminoacylation ribozyme variant] | 1.7 | 2.34 | 2.21 | 2.4 | 2.1 | 1.68 |
| AUUCCCCUGGUCAUCGAUUGA [Fam2.1 aminoacylation ribozyme variant] | 1.59 | 2.47 | 1.55 | 1.13 | 1.73 | 1.79 |
| AUUACCCUGCACAUCGAGUGA [Fam2.1 aminoacylation ribozyme variant] | 3.01 | 8.38 | 6.87 | 29.8 | 7.49 | 3.65 |
| CAACACCUCAAGCAAUCGGUC [Fam1B.1 aminoacylation ribozyme variant] | 0.947 | 0.997 | 1.27 | 1.3 | 1.1 | 0.914 |
| CUACUUCAAACAAUCGGUGUC [Fam1A.1 aminoacylation ribozyme variant] | 0.613 | 0.851 | 0.654 | 1.18 | 0.635 | 0.546 |
| CUUCAGCUAGGUCAUCGGGUG [Fam2.2 aminoacylation ribozyme variant] | 2.65 | 3.83 | 3.42 | 16 | 3.57 | 3.6 |
| CCACACUUCAAGGAAUCGGGC [Fam1B.1 aminoacylation ribozyme variant] | 2.98 | 3.41 | 3.01 | 1.44 | 2.86 | 2.85 |
| AUUACCCUGGUCAUCCAUUGA [Fam2.1 aminoacylation ribozyme variant] | 1.08 | 0.684 | 0.84 | 1.15 | 1.14 | 1.08 |
| AAGUUUUCUAAUAGUCCCAAG [Fam3.1 aminoacylation ribozyme variant] | 1.02 | 1.45 | 0.891 | 2.7 | 0.929 | 1.08 |
| CUACUUCAAACAAGCGGGCUG [Fam1A.1 aminoacylation ribozyme variant] | 1.79 | 1.88 | 1.38 | 0.943 | 1.38 | 1.41 |
| ACUACCCUGGUCAUCGAGCGA [Fam2.1 aminoacylation ribozyme variant] | 2.04 | 1.82 | 1.91 | 2.05 | 1.95 | 1.94 |
| CUACUCGAAACAAUCGGUCUG [Fam1A.1 aminoacylation ribozyme variant] | 0.837 | 0.979 | 0.942 | 0.599 | 0.84 | 1.01 |
| AAGUUUGGUAAUAGCCGCAAG [Fam3.1 aminoacylation ribozyme variant] | 1.27 | 1.42 | 1.39 | 1.19 | 1.15 | 1.01 |
| AUUACACUGGUCACCGAGUGA [Fam2.1 aminoacylation ribozyme variant] | 2.95 | 7.35 | 5.29 | 24.5 | 5.41 | 2.91 |
| CCAGACUUCAAGCAAACGGUC [Fam1B.1 aminoacylation ribozyme variant] | 0.706 | 0.814 | 0.591 | 0.824 | 0.628 | 0.811 |
| CUACUUAAAACAAUCGGUCCG [Fam1A.1 aminoacylation ribozyme variant] | 0.878 | 0.709 | 1.12 | 0.603 | 0.908 | 0.835 |
| AUAACCCUGGUCAUCUAGUGA [Fam2.1 aminoacylation ribozyme variant] | 4.52 | 10.1 | 8.88 | 45.7 | 9.2 | 4.77 |
| AUUACCCUUGUUAUCGAGUGA [Fam2.1 aminoacylation ribozyme variant] | 7.09 | 19.6 | 15.9 | 116 | 14.7 | 6.96 |
| CCACACUUCAAGGAAGCGGUC [Fam1B.1 aminoacylation ribozyme variant] | 0.986 | 0.619 | 1.06 | 0.364 | 1.13 | 1.28 |
| CGAAACUUCAAGCAAUCGGUC [Fam1B.1 aminoacylation ribozyme variant] | 1.17 | 5.43 | 0.901 | 7.94 | 0.993 | 1.18 |
| AUUAGCCUGAUCAUCGAGUGA [Fam2.1 aminoacylation ribozyme variant] | 4.82 | 11 | 10.4 | 46.7 | 10.6 | 4.4 |
| AUUACCCUGGUGAUGGAGUGA [Fam2.1 aminoacylation ribozyme variant] | 2.62 | 5.69 | 5.67 | 31.1 | 5.75 | 2.55 |
| AAGUUUGCUUAUAGACGCAAG [Fam3.1 aminoacylation ribozyme variant] | 0.591 | 0.629 | 0.559 | 0.84 | 0.495 | 0.585 |
| GUUACCAUGGUCAUCGAGUGA [Fam2.1 aminoacylation ribozyme variant] | 5.01 | 10.3 | 8.11 | 28.3 | 9.59 | 5.22 |
| CUGCUUCAAACAUUCGGUCUG [Fam1A.1 aminoacylation ribozyme variant] | 1.29 | 0.813 | 1.12 | 1.11 | 1.25 | 1.62 |
